How the values were obtained:
[1] = target: T1, 5T4-Fc (human, UniProt Q13641 32-355, limits assumed); assay: ELISA, plates coated with 5T4-Fc
T1 construct: obtained from Peter L. Stern, University of Manchester; also called h5T4-Fc; recombinant 5T4
T1 sequence (looked up): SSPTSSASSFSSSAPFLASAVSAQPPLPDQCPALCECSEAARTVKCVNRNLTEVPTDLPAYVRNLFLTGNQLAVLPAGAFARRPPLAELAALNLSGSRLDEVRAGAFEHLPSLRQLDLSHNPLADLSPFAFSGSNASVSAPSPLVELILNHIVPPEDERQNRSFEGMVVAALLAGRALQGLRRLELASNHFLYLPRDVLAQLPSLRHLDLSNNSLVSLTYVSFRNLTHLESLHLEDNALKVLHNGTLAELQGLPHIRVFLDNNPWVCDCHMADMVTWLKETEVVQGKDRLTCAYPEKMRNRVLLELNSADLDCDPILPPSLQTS
Description: ELISA was performed using a standard protocol. Plates (#655074, Greiner Bio-One GmbH, Germany) were pre-coated with 0.5 μg/ml 5T4-Fc (obtained from Peter L. Stern, University of Manchester) overnight. 5T4 antibodies were diluted from 6 to 1.5×10⁻³ μg/ml in 1:4 dilutions and added in duplicates of 50 μl to each well. Binding was detected with rabbit anti-h kappa L-chain-HRP (P0129, Dako Denmark) and the ELISA was developed with SuperSignal ELISA PICO Chemiluminescent substrate (Thermo Scientific Pierce, Rockford, Ill. USA) for 2-10 minutes and read in an automated microplate based multi-detection reader (FLUOstar OPTIMA, Netherlands).

[2] = target: T2, mouse 5T4 (mouse, UniProt Q9Z0L0 32-426); assay: flow cytometry, mouse 5T4-transfected cells
T2 construct: whole, on cells; also called murine 5T4
T2 sequence (looked up): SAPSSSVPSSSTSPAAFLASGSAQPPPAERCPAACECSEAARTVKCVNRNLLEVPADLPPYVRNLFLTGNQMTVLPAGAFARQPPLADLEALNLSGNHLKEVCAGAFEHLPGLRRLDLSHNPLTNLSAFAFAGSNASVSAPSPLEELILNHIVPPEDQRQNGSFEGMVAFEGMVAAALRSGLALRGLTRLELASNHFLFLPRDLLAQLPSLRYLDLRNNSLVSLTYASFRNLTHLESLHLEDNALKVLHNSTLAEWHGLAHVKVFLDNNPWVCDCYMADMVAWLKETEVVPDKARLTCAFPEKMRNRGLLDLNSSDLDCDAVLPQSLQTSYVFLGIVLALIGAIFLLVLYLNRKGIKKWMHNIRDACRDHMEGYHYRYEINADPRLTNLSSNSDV

[3] = target: T3, human 5T4 on transfected cells (human, UniProt Q13641 32-420); assay: flow cytometry, 5T4-transfected A9 cells
T3 construct: whole, on cells; for B16 and A9 cells only a 5T4 construct is named; also called 5T4-transfected B16 cells; B16-5T4
T3 sequence (looked up): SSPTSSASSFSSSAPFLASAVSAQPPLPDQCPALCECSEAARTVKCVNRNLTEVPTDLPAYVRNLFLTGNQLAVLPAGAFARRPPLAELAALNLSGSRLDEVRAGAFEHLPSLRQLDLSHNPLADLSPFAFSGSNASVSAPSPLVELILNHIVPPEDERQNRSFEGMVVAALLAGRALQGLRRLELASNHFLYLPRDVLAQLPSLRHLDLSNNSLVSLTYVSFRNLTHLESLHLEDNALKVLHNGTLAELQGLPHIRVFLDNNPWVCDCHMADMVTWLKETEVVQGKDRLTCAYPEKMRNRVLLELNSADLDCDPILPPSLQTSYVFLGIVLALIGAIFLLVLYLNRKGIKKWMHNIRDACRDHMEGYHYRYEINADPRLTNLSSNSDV
Description: (§1) Analysis of 5T4 mAb binding with flow cytometry was performed using 5T4-transfected cell lines and as negative control, mock transfected cells. Three different transfected cell lines used were used for this study; B16, A9 and CHO, transfected either with a 5T4 construct or with an empty vector control construct. Cells were stained with 5T4 antibodies diluted in FACS buffer (PBS, 0.5% BSA and 0.02% NaN₃). […] Samples were analysed either on a FACSCalibur or a FACSverse (BD Biosciences, Heidelberg, Germany) and mean fluorescence intensity (MFI) determined.

[4] = target: T3, human 5T4 on transfected cells; assay: flow cytometry, 5T4-transfected B16 cells
Description: as §1

[5] = target: T4, cynomolgus 5T4 (Macaca mulatta (cynomolgus)); assay: flow cytometry, CHO cells transfected with cynomolgus 5T4
T4 construct: whole, on cells; stably transfected CHO cells; also called cyno5T4; cy5T4
Description: (§2) The potency of 5T4 antibodies in binding to cynomolgus 5T4 was determined by flow cytometry. CHO cells were stably transfected with […] (cynomolgus) 5T4. […] Samples were analysed either on a FACSCalibur or a FACSverse (BD Biosciences, Heidelberg, Germany) and mean fluorescence intensity (MFI) determined. […] To compare the EC50 values between human and cynomolgus 5T4, the cy5T4/hu5T4 ratio was calculated from the experiment with the full dose-response.

[6] = target: T5, 5T4 (immobilised for SPR) (UniProt Q13641 32-355, limits assumed, biotinylated on the MASS-1 platform); assay: SPR Biacore 3000, 5T4 amine-coupled, mAb injected, 1:1 Langmuir
T5 construct: also called biotinylated 5T4
T5 sequence (looked up): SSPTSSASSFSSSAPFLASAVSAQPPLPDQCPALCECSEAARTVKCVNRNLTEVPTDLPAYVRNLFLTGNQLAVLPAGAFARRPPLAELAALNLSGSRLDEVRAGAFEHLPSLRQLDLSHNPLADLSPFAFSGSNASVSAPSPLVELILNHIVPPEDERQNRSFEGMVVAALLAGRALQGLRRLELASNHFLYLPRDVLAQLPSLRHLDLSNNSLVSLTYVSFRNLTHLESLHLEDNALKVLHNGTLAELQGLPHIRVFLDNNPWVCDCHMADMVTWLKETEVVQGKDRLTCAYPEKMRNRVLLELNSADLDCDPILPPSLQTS
Description: Binding kinetics of the 5T4-specific mAbs have been studied using two different SPR-based platforms, the Biacore 3000 (GE Healthcare) and the MASS-1 platform (Sierra Sensors). Briefly, 5T4 was captured at the sensor chip surface either via direct amine coupling (Biacore platform) or using a streptavidin coated chip and biotinylated 5T4 (MASS-1 platform). The different 5T4-specific mAbs were then injected over the chip in increasing concentrations and the association and dissociation rates studied in real time. A 1:1 Langmuir model was used for curve fitting.

[7] = target: T4, cynomolgus 5T4; assay: flow cytometry, CHO cells with cynomolgus 5T4 against CHO cells with human 5T4
Description: as §2

[8] = target: T6, human/mouse 5T4 chimera E1; assay: flow cytometry, cells with 5T4 chimera; % positive cells over that of the best clone
T6 construct: on stably transfected CHO cells
Description: (§3) Epitope mapping was performed by investigation of loss of binding by the antibodies using a panel of human/mouse chimeric 5T4 constructs by flow cytometry. […] Two strategies were used for the epitope mapping as illustrated in FIG. 5. In one approach, seven human/mouse 5T4 chimeras were constructed based on dividing 5T4 into seven different domains (FIG. 5). By replacing each domain with the corresponding mouse sequence seven human/mouse 7 5T4 human/mouse chimeras were generated. The chimeras were generated using the human protein 5T4 sequence NP_006661.1 (reference mRNA sequence NM_006670.4) and the corresponding mouse sequence NP_035757.2 (reference mRNA sequence NM_011627.4). The human/mouse chimeric DNA constructs, as well as human and mouse wild-type 5T4, were cloned into pcDNA3.1 expression vectors. […] In the other approach, cells transfected with a human/mouse 5T4 chimera (Woods et al., 2002) was used, in which mouse sequence in amino acid 173-420 replaced the human sequence (FIG. 5). As controls human 5T4 and mouse 5T4-transfected cells were used.
(§4) For flow cytometric analysis, cells were stained with different 5T4 antibodies diluted in FACS buffer (PBS, 0.5% BSA). […] Samples were analysed by FACSverse (BD Biosciences, Heidelberg, Germany) and % positive cells were determined. To compensate for variations in % 5T4 positive cells in the various transfected populations, binding levels were normalized within each chimera by dividing % positive cells for each clone with % positive cells for the clones resulting in the highest % positive cells (% pos cellsclonX/% positive cellsₘₐₓ). A normalized value≤0.75 was defined as mAb binding being dependent on the replaced region, whereas a normalized value≤0.25 was defined as complete dependence.

[9] = target: T7, human/mouse 5T4 chimera E2; assay: as above
T7 construct: on stably transfected CHO cells
Description: as §3, §4

[10] = target: T8, human/mouse 5T4 chimera E3; assay: as above
T8 construct: on stably transfected CHO cells
Description: as §3, §4

[11] = target: T9, human/mouse 5T4 chimera E4; assay: as above
T9 construct: on stably transfected CHO cells
Description: as §3, §4

[12] = target: T10, human/mouse 5T4 chimera E5; assay: as above
T10 construct: on stably transfected CHO cells
Description: as §3, §4

[13] = target: T11, human/mouse 5T4 chimera E6; assay: as above
T11 construct: on stably transfected CHO cells
Description: as §3, §4

[14] = target: T12, human/mouse 5T4 chimera E7; assay: as above
T12 construct: on stably transfected CHO cells
Description: as §3, §4

B1: 1212/1213 (antibody, IgG1, V domains shown)
VH: EVQLLESGGGLVQPGGSLRLSCAASGFTFSSYAMSWVRQAPGKGLEWVSYISSYGGYTSYADSVKGRFTISRDNSKNTLYLQMNSLRAEDTAVYYCARYHSGVLDYWGQGTLVTVSS
VL: DIQMTQSPSSLSASVGDRVTITCRASQSISSYLNWYQQKPGKAPKLLIYAASSLQSGVPSRFSGSGSGTDFTLTISSLQPEDFATYYCQQYYYHYLLTFGQGTKLEIK
notes: 5T4 antibody
For B1, the EC50 [1] was 0.56 nM, the binding result [2] was “no binding” and the “Normalized EC50 (to 1628)” value [3] was 0.4 ratio to 1628. For the same binder, the EC50 [4] was 1.4 nM, the “Normalized EC50 (to 1628)” value [4] was 1.1 ratio to 1628 and the EC50 [5] was 30.7 nM. The kon [6] was 450000 M⁻¹ s⁻¹, the “Ratio EC50cyno-5T4/h5T4” value [7] was 140 ratio and the “normalized % positive cells” value [8] was 0.89. The “normalized % positive cells” value [9] was 0.9, the “normalized % positive cells” value [10] was 0.93 and the “normalized % positive cells” value [11] was 1. For the same binder, the “normalized % positive cells” value [12] was 0.84, the “normalized % positive cells” value [13] was 0.03 and the “normalized % positive cells” value [14] was 0.88.
